What was measured:
Survivin [1] = target: Survivin (UniProt O15392); test: biotinylated peptide pull-down, immunoblot; conditions: reference: unmodified H3(1-21) peptide; sites T3
Survivin [2] = target: Survivin (UniProt O15392); test: peptide pull-down, Coomassie staining; conditions: reference: unmodified H3 peptide; sites T3
[3] = target: Histone-H3 (1-21) peptide phosphorylated at Thr-3 (UniProt P68431); test: fluorescence polarisation

Histone-H3 1-21 (from UniProt P68431) H3T3ph peptide
binding against the reference (Survivin [1]): stronger

Histone-H3 (from UniProt P68431) H3T3ph peptide
binding against the reference (Survivin [2]): stronger

xISD complex containing INCENP(1-58), Survivin and Dasra-A (from UniProt Q4V7H8 1-296)
fold enhancement of binding by T3ph against unmodified H3 [3]: 20 fold
